According to the supplement of paper PMC7877785:
± gives the uncertainty stated by the source.

Assay: self-splicing fitness, log relative to wild type (ln ratio); higher = more splicing; Tetrahymena group I intron in knt gene, E. coli kanamycin selection, DiMSum; sequences stand for … in CUCUCU…GGAGGGAAAAGUUAUCAGGCAUGCACCUGGUAGCUAGUCUUUAAACCAAUAGAUUGCAUCGGUUUAAAAGGCAAGACCGUCAAAUUGCGGGAAAGGGGUCAACAGCCGUUCAGUACCAAGUCUCAGGGGAAACUUUGAGAUGGCCUUGCAAAGGGUAUGGUAAUAAGCUGACGGACAUGGUCCUAACCACGCAGCCAAGUCCUAAGUCAACAGAUCUUCUGUUGAUAUGGAUGCAGUUCACAGACUAAAUGUCGGUCGGGGAAGAUGUAUUCUUCUCAUAAGAUAUAGUCGGACCUCUCCUUAAUGGGAGCUAGCGGAUGAAGUGAUGCAACACUGGAGCCGCUGGGAACUAAUUUGUAUGCGAAAGUAUAUUGAUUAGUUUUGGAGUACUCGUGGUCG
How it was run: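 Pooled colonies went to amplicon sequencing on an Illumina HiSeq 2500 after six replicate transformations. The plates were LB agar with 100 μg/mL carbenicillin, 50 μM IPTG and 0.2% rhamnose, with or without 25 μg/mL kanamycin, incubated overnight at 37°C or 30°C. The E. coli BL21(DE3) library had all eight P1ex-region intron nucleotides randomised, the intron placed in the knt kanamycin-resistance gene on pET-22b(+). DiMSum fitness is the error-weighted combination of replicate fold changes, kanamycin against none, normalised to wild type.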

Sequence	self-splicing fitness (ln) (37 °C)	self-splicing fitness (ln) (30 °C)
AGUCAGCAAUAUUACGUUGA	-3.49 ± 0.31	–
AGUGAGCAAUAUUACGAAGG	-1.41 ± 0.38	-3.45 ± 0.37
AGUGAGCAAUAUUACGAAUU	-2.56 ± 0.33	-3.18 ± 0.37
AGUGAGCAAUAUUACGAGUC	-1.93 ± 0.18	-4.15 ± 0.47
AGUGAGCAAUAUUACGCCAU	-0.383 ± 0.35	-2.58 ± 0.43
AGUGAGCAAUAUUACGCCCA	-2.42 ± 0.37	-3.28 ± 0.46
AGUGAGCAAUAUUACGCCCG	–	-2.27 ± 0.4
AGUGAGCAAUAUUACGCGAA	-1.56 ± 0.29	-2.36 ± 0.32
AGUGAGCAAUAUUACGCGCU	-1.83 ± 0.39	–
AGUGAGCAAUAUUACGCUUC	-2.7 ± 0.34	-2.41 ± 0.25
AGUGAGCAAUAUUACGGAAG	–	-2.58 ± 0.25
AGUGAGCAAUAUUACGGCAC	-1.01 ± 0.21	-1.29 ± 0.17
AGUGAGCAAUAUUACGGCCU	0.416 ± 0.15	-0.495 ± 0.13
AGUGAGCAAUAUUACGGCUA	-1.38 ± 0.23	-0.705 ± 0.24
AGUGAGCAAUAUUACGGUGC	-1.91 ± 0.22	-3.77 ± 0.27
AGUGAGCAAUAUUACGUACA	-0.682 ± 0.36	-1.72 ± 0.28
AGUGAGCAAUAUUACGUAUA	-2.72 ± 0.27	-2.18 ± 0.25
AGUGAGCAAUAUUACGUAUU	-2.23 ± 0.31	-3.27 ± 0.25
AGUGAGCAAUAUUACGUGAA	-2.91 ± 0.19	-3.3 ± 0.36
AGUGAGCAAUAUUACGUGCA	-0.509 ± 0.13	-2.06 ± 0.14
AGUGAGCAAUAUUACGUGGU	-2.18 ± 0.23	-3.64 ± 0.22
AGUGAGCAAUAUUACGUGUU	-3.04 ± 0.25	-4.67 ± 0.46
AGUUAGCAAUAUUACGACCG	-0.166 ± 0.13	-0.776 ± 0.093
AGUUAGCAAUAUUACGCAAA	-1.57 ± 0.29	–
AGUUAGCAAUAUUACGCAGA	-2.04 ± 0.26	-2.06 ± 0.26

Sequence	self-splicing fitness (ln) (37 °C)	self-splicing fitness (ln) (30 °C)
AGUUAGCAAUAUUACGCAGG	-0.586 ± 0.29	-2.31 ± 0.3
AGUUAGCAAUAUUACGCAGU	-2.62 ± 0.31	-2.38 ± 0.23
AGUUAGCAAUAUUACGCCUA	-0.149 ± 0.13	-1.11 ± 0.16
AGUUAGCAAUAUUACGCUCC	-1.02 ± 0.33	-1.45 ± 0.45
AGUUAGCAAUAUUACGCUUG	-1.83 ± 0.23	–
AGUUAGCAAUAUUACGGACA	0.372 ± 0.13	-0.912 ± 0.12
AGUUAGCAAUAUUACGGGGA	-3.12 ± 0.19	-1.84 ± 0.17
AGUUAGCAAUAUUACGGGUU	-1.53 ± 0.15	-1.38 ± 0.11
AGUUAGCAAUAUUACGGUCG	-0.715 ± 0.14	-0.622 ± 0.094
AGUUAGCAAUAUUACGUAAC	-2.21 ± 0.24	-4.54 ± 0.46
AGUUAGCAAUAUUACGUCAG	-3.25 ± 0.19	-3.99 ± 0.29
AGUUAGCAAUAUUACGUCGU	-1.05 ± 0.14	-2.35 ± 0.14
AGUUAGCAAUAUUACGUCUG	-1.72 ± 0.11	-1.43 ± 0.074
AUAAAGCAAUAUUACGAACA	0.425 ± 0.11	0.281 ± 0.085
AUAAAGCAAUAUUACGAAUC	-1.31 ± 0.22	-4.22 ± 0.42
AUAAAGCAAUAUUACGAAUG	-0.422 ± 0.12	-1.48 ± 0.1
AUAAAGCAAUAUUACGCAUU	-0.523 ± 0.11	-1.82 ± 0.086
AUAAAGCAAUAUUACGCCUA	-0.286 ± 0.1	-0.422 ± 0.091
AUAAAGCAAUAUUACGCGUC	-2.73 ± 0.29	-4.6 ± 0.46
AUAAAGCAAUAUUACGCUGU	-0.246 ± 0.1	-0.921 ± 0.09
AUAAAGCAAUAUUACGGAUG	-0.844 ± 0.11	-1.69 ± 0.072
AUAAAGCAAUAUUACGGGGU	-1.99 ± 0.14	-2.63 ± 0.16
AUAAAGCAAUAUUACGGUAA	-0.709 ± 0.09	-1.21 ± 0.077
AUAAAGCAAUAUUACGGUAC	-2.6 ± 0.17	-1.89 ± 0.11
AUAAAGCAAUAUUACGGUCG	-0.114 ± 0.083	0.114 ± 0.059

Sequence	self-splicing fitness (ln) (37 °C)	self-splicing fitness (ln) (30 °C)
AUAAAGCAAUAUUACGUCCG	0.106 ± 0.13	-0.335 ± 0.11
AUAAAGCAAUAUUACGUCGA	0.858 ± 0.086	-0.992 ± 0.068
AUAAAGCAAUAUUACGUUGG	-2.15 ± 0.15	-2.08 ± 0.11
AUACAGCAAUAUUACGAAUG	-2.7 ± 0.19	-2.16 ± 0.14
AUACAGCAAUAUUACGACUG	-0.848 ± 0.097	-1.52 ± 0.077
AUACAGCAAUAUUACGAUGC	-1.17 ± 0.16	-1.75 ± 0.11
AUACAGCAAUAUUACGCAAA	-1.07 ± 0.18	-2.45 ± 0.21
AUACAGCAAUAUUACGCACC	-1.05 ± 0.1	-1.21 ± 0.086
AUACAGCAAUAUUACGCCAA	-1.22 ± 0.18	-2.6 ± 0.19
AUACAGCAAUAUUACGCGUG	-0.481 ± 0.082	-0.923 ± 0.063
AUACAGCAAUAUUACGCUCA	0.318 ± 0.086	-0.776 ± 0.069
AUACAGCAAUAUUACGGACA	-0.413 ± 0.13	-1.55 ± 0.13
AUACAGCAAUAUUACGGCGU	0.665 ± 0.076	-0.145 ± 0.065
AUACAGCAAUAUUACGGUCU	-0.16 ± 0.064	0.331 ± 0.06
AUACAGCAAUAUUACGGUUA	-0.372 ± 0.071	-0.52 ± 0.069
AUACAGCAAUAUUACGUCAG	-1.23 ± 0.13	-3.05 ± 0.13
AUACAGCAAUAUUACGUUAC	-2.79 ± 0.27	-3.94 ± 0.25
AUACAGCAAUAUUACGUUGU	-2.81 ± 0.13	-2.77 ± 0.098
AUAGAGCAAUAUUACGAAAU	0.0653 ± 0.13	-0.572 ± 0.1
AUAGAGCAAUAUUACGAACA	-1.09 ± 0.25	-1.9 ± 0.16
AUAGAGCAAUAUUACGAACC	-1.02 ± 0.14	-2.16 ± 0.14
AUAGAGCAAUAUUACGAGCA	-0.949 ± 0.2	-2.57 ± 0.19
AUAGAGCAAUAUUACGAGGU	-2.94 ± 0.27	-3.58 ± 0.44
AUAGAGCAAUAUUACGAGUA	-2.52 ± 0.28	-3.77 ± 0.33
AUAGAGCAAUAUUACGAUAG	-1.62 ± 0.23	-3.43 ± 0.34

Sequence	self-splicing fitness (ln) (37 °C)	self-splicing fitness (ln) (30 °C)
AUAGAGCAAUAUUACGAUCC	-2.18 ± 0.36	-3.08 ± 0.33
AUAGAGCAAUAUUACGAUUA	-0.158 ± 0.17	-2.45 ± 0.21
AUAGAGCAAUAUUACGCACG	-0.997 ± 0.23	-1.57 ± 0.18
AUAGAGCAAUAUUACGCCAU	-1.66 ± 0.27	-2.25 ± 0.18
AUAGAGCAAUAUUACGCCCU	-0.622 ± 0.37	-0.756 ± 0.19
AUAGAGCAAUAUUACGCCGA	-0.0699 ± 0.32	-1.81 ± 0.19
AUAGAGCAAUAUUACGCCGC	-2.75 ± 0.44	–
AUAGAGCAAUAUUACGCUCA	0.193 ± 0.12	-0.0598 ± 0.076
AUAGAGCAAUAUUACGGAGU	-1.03 ± 0.14	-0.705 ± 0.093
AUAGAGCAAUAUUACGGCCA	-1.02 ± 0.24	-1.25 ± 0.15
AUAGAGCAAUAUUACGUACU	0.124 ± 0.14	-0.65 ± 0.12
AUAGAGCAAUAUUACGUCCG	-3.65 ± 0.34	-2.71 ± 0.23
AUAGAGCAAUAUUACGUCCU	-0.577 ± 0.14	-1.42 ± 0.093
AUAGAGCAAUAUUACGUGCG	-0.384 ± 0.11	-1.6 ± 0.11
AUAGAGCAAUAUUACGUUCG	-0.257 ± 0.092	-0.386 ± 0.077
AUAUAGCAAUAUUACGACAU	0.224 ± 0.033	0.126 ± 0.014
AUAUAGCAAUAUUACGACGA	-0.564 ± 0.28	-1.1 ± 0.22
AUAUAGCAAUAUUACGAGAG	-2.29 ± 0.22	–
AUAUAGCAAUAUUACGAGAU	-0.91 ± 0.13	-3.01 ± 0.14
AUAUAGCAAUAUUACGAGCG	-0.66 ± 0.16	-2.19 ± 0.17
AUAUAGCAAUAUUACGAGGC	–	-2.74 ± 0.26
AUAUAGCAAUAUUACGAGUC	-2.63 ± 0.45	-2.97 ± 0.34
AUAUAGCAAUAUUACGCAGU	-3.1 ± 0.33	-2.86 ± 0.25
